According to the supplement of paper PMC11246515:
± gives the standard deviation of the averaged measurements.

Assay: total protein half-life in vivo (active degradation + dilution); higher = more stable protein
[1] = E. coli NCM3722 delta-clpP delta-lon delta-hslV, growth: N-lim chemostat, doubling time 6 h
[2] = E. coli NCM3722 delta-clpP, growth: N-lim chemostat, doubling time 6 h
[3] = E. coli NCM3722 delta-hslV, growth: N-lim chemostat, doubling time 6 h
[4] = E. coli NCM3722 delta-lon, growth: N-lim chemostat, doubling time 6 h
[5] = E. coli NCM3722 delta-smpB, growth: N-lim chemostat, doubling time 6 h
[6] = wild type E. coli NCM3722, growth: C-lim chemostat, doubling time 3 h
[7] = wild type E. coli NCM3722, growth: C-lim chemostat, doubling time 12 h
[8] = wild type E. coli NCM3722, growth: N-lim chemostat, doubling time 6 h
[9] = wild type E. coli NCM3722, growth: N-lim chemostat, doubling time 12 h
[10] = wild type E. coli NCM3722, growth: P-lim chemostat, doubling time 6 h
[11] = wild type E. coli NCM3722, growth: P-lim chemostat, doubling time 12 h
[12] = wild type E. coli NCM3722, growth: C-lim chemostat, doubling time 6 h

## MELLSEYGLFLAKIVTVVLAIAAIAAIIVNVAQRNKRQRGELRVNNLSEQYKEMKEELAAALMDSHQQKQWHKAQKKKHKQEAKAAKAKAKLGEVATDSKPRVWVLDFKGSMDAHEVNSLREEITAVLAAFKPQDQVVLRLESPGGMVHGYGLAASQLQRLRDKNIPLTVTVDKVAASGGYMMACVADKIVSAPFAIVGSIGVVAQMPNFNRFLKSKDIDIELHTAGQYKRTLTLLGENTEEGREKFREELNETHQLFKDFVKRMRPSLDIEQVATGEHWYGQQAVEKGLVDEINTSDEVILSLMEGREVVNVRYMQRKRLIDRFTGSAAESADRLLLRWWQRGQKPLM [P0AG14]
[1]
  total protein half-life in vivo: 6.52 ± 0.91 h
[2]
  total protein half-life in vivo: 6.18 ± 0.14 h
[3]
  total protein half-life in vivo: 5.91 ± 0.15 h
[4]
  total protein half-life in vivo: 6.12 ± 0.27 h
[5]
  total protein half-life in vivo: 6.07 ± 0.87 h
[6]
  total protein half-life in vivo: 3.11 ± 0.099 h
[7]
  total protein half-life in vivo: 11.3 ± 0.26 h
[8]
  total protein half-life in vivo: 6.076 ± 0.021 h
[9]
  total protein half-life in vivo: 14.1 ± 1.8 h
[10]
  total protein half-life in vivo: 5.6 ± 0.61 h
[11]
  total protein half-life in vivo: 11.4 ± 1.4 h

## MKVGFIGLGIMGKPMSKNLLKAGYSLVVADRNPEAIADVIAAGAETASTAKAIAEQCDVIITMLPNSPHVKEVALGENGIIEGAKPGTVLIDMSSIAPLASREISEALKAKGIDMLDAPVSGGEPKAIDGTLSVMVGGDKAIFDKYYDLMKAMAGSVVHTGEIGAGNVTKLANQVIVALNIAAMSEALTLATKAGVNPDLVYQAIRGGLAGSTVLDAKAPMVMDRNFKPGFRIDLHIKDLANALDTSHGVGAQLPLTAAVMEMMQALRADGLGTADHSALACYYEKLAKVEVTR [P0ABQ2]
[1]
  total protein half-life in vivo: 3.86 ± 0.51 h
[2]
  total protein half-life in vivo: 3.02 ± 0.079 h
[3]
  total protein half-life in vivo: 3.5 ± 0.65 h
[4]
  total protein half-life in vivo: 3.57 ± 0.23 h
[5]
  total protein half-life in vivo: 2.9 ± 0.15 h
[6]
  total protein half-life in vivo: 2.9 ± 0.065 h
[12]
  total protein half-life in vivo: 5.47 ± 0.28 h
[7]
  total protein half-life in vivo: 9.56 ± 1 h
[8]
  total protein half-life in vivo: 3.13 ± 0.46 h
[9]
  total protein half-life in vivo: 4.13 ± 0.28 h
[10]
  total protein half-life in vivo: 5.31 ± 0.075 h
[11]
  total protein half-life in vivo: 10.3 ± 0.15 h

## MFQLSVQDIHPGEKAGDKEEAIRQVAAALVQAGNVAEGYVNGMLAREQQTSTFLGNGIAIPHGTTDTRDQVLKTGVQVFQFPEGVTWGDGQVAYVAIGIAASSDEHLGLLRQLTHVLSDDSVAEQLKSATTAEELRALLMGEKQSEQLKLDNEMLTLDIVASDLLTLQALNAARLKEAGAVDATFVTKAINEQPLNLGQGIWLSDSAEGNLRSAIAVSRAANAFDVDGETAAMLVSVAMNDDQPIAVLKRLADLLLDNKADRLLKADAATLLALLTSDDAPTDDVLSAEFVVRNEHGLHARPGTMLVNTIKQFNSDITVTNLDGTGKPANGRSLMKVVALGVKKGHRLRFTAQGADAEQALKAIGDAIAAGLGEGA
[1]
  total protein half-life in vivo: 6.229 ± 0.029 h
[2]
  total protein half-life in vivo: 5.64 ± 0.69 h
[3]
  total protein half-life in vivo: 5.85 ± 0.086 h
[4]
  total protein half-life in vivo: 6.16 ± 0.26 h
[5]
  total protein half-life in vivo: 5.94 ± 0.085 h
[6]
  total protein half-life in vivo: 2.96 ± 0.13 h
[12]
  total protein half-life in vivo: 5.74 ± 0.56 h
[7]
  total protein half-life in vivo: 12.3 ± 1.2 h
[8]
  total protein half-life in vivo: 5.99 ± 0.57 h
[10]
  total protein half-life in vivo: 5.71 ± 0.078 h
[11]
  total protein half-life in vivo: 11.97 ± 0.033 h

## MLVWLAEHLVKYYSGFNVFSYLTFRAIVSLLTALFISLWMGPRMIAHLQKLSFGQVVRNDGPESHFSKRGTPTMGGIMILTAIVISVLLWAYPSNPYVWCVLVVLVGYGVIGFVDDYRKVVRKDTKGLIARWKYFWMSVIALGVAFALYLAGKDTPATQLVVPFFKDVMPQLGLFYILLAYFVIVGTGNAVNLTDGLDGLAIMPTVFVAGGFALVAWATGNMNFASYLHIPYLRHAGELVIVCTAIVGAGLGFLWFNTYPAQVFMGDVGSLALGGALGIIAVLLRQEFLLVIMGGVFVVETLSVILQVGSFKLRGQRIFRMAPIHHHYELKGWPEPRVIVRFWIISLMLVLIGLATLKVR [P0A6W3]
[1]
  total protein half-life in vivo: 6.14 h
[2]
  total protein half-life in vivo: 5.83 h
[3]
  total protein half-life in vivo: 5.23 h
[4]
  total protein half-life in vivo: 5.13 ± 0.073 h
[5]
  total protein half-life in vivo: 7.03 h
[7]
  total protein half-life in vivo: 12.3 ± 0.13 h
[8]
  total protein half-life in vivo: 6.35 ± 0.4 h
[9]
  total protein half-life in vivo: 13.1 h
[10]
  total protein half-life in vivo: 6.06 h
[11]
  total protein half-life in vivo: 11.1 ± 0.92 h

## MAFQVKIHQIRAFVEVARQGSIRGASRMLNMSQPALSKSIQELEEGLAAQLFFRRSKGVTLTDAGESFYQHASLILEELRAAQEDIRQRQGQLAGQINIGMGASISRSLMPAVISRFHQQHPQVKVRIMEGQLVSMINELRQGELDFTINTYYQGPYDHEFTFEKLLEKQFAIFCRPGHPAIGARSIKQLLDYSWTMPTPHGSYYKQLSELLDDQAQTPQVGVVCETFSACISLVAKSDFLSKLPEEMGCDPLHGQGLVMLPVSEILPKAAYYLIQRRDSRQTPLTASLITQFRRECGYLQS
[4]
  total protein half-life in vivo: 2.39 ± 0.088 h
[8]
  total protein half-life in vivo: 0.867 h
[9]
  total protein half-life in vivo: 0.857 h

## MVAENQPGHIDQIKQTNAGAVYRLIDQLGPVSRIDLSRLAQLAPASITKIVREMLEAHLVQELEIKEAGNRGRPAVGLVVETEAWHYLSLRISRGEIFLALRDLSSKLVVEESQELALKDDLPLLDRIISHIDQFFIRHQKKLERLTSIAITLPGIIDTENGIVHRMPFYEDVKEMPLGEALEQHTGVPVYIQHDISAWTMAEALFGASRGARDVIQVVIDHNVGAGVITDGHLLHAGSSSLVEIGHTQVDPYGKRCYCGNHGCLETIASVDSILELAQLRLNQSMSSMLHGQPLTVDSLCQAALRGDLLAKDIITGVGAHVGRILAIMVNLFNPQKILIGSPLSKAADILFPVISDSIRQQALPAYSQHISVESTQFSNQGTMAGAALVKDAMYNGSLLIRLLQG
[1]
  total protein half-life in vivo: 5.81 ± 0.28 h
[2]
  total protein half-life in vivo: 6.92 ± 0.73 h
[4]
  total protein half-life in vivo: 6.12 ± 0.57 h
[5]
  total protein half-life in vivo: 6.02 ± 0.33 h
[6]
  total protein half-life in vivo: 2.89 ± 0.014 h
[12]
  total protein half-life in vivo: 5.92 ± 0.69 h
[7]
  total protein half-life in vivo: 9.65 ± 0.51 h
[8]
  total protein half-life in vivo: 5.85 ± 0.26 h
[9]
  total protein half-life in vivo: 12.8 ± 0.51 h
[10]
  total protein half-life in vivo: 6.19 ± 1 h
[11]
  total protein half-life in vivo: 12.4 ± 0.56 h

## MVLMIVSGRSGSGKSVALRALEDMGFYCVDNLPVVLLPDLARTLADREISAAVSIDVRNMPESPEIFEQAMSNLPDAFSPQLLFLDADRNTLIRRYSDTRRLHPLSSKNLSLESAIDKESDLLEPLRSRADLIVDTSEMSVHELAEMLRTRLLGKRERELTMVFESFGFKHGIPIDADYVFDVRFLPNPHWDPKLRPMTGLDKPVAAFLDRHTEVHNFIYQTRSYLELWLPMLETNNRSYLTVAIGCTGGKHRSVYIAEQLADYFRSRGKNVQSRHRTLEKRKP [P0A894]
[1]
  total protein half-life in vivo: 5.6 ± 1.1 h
[2]
  total protein half-life in vivo: 4.58 ± 0.2 h
[3]
  total protein half-life in vivo: 4.92 ± 0.47 h
[4]
  total protein half-life in vivo: 5.04 ± 0.64 h
[5]
  total protein half-life in vivo: 4.453 ± 0.016 h
[6]
  total protein half-life in vivo: 3.02 ± 0.095 h
[12]
  total protein half-life in vivo: 6.62 ± 1.3 h
[7]
  total protein half-life in vivo: 11.5 ± 0.81 h
[8]
  total protein half-life in vivo: 4.48 ± 0.31 h
[9]
  total protein half-life in vivo: 7.88 ± 1.8 h
[10]
  total protein half-life in vivo: 5.95 ± 0.11 h
[11]
  total protein half-life in vivo: 12.1 ± 0.55 h

## MRKIIHVDMDCFFAAVEMRDNPALRDIPIAIGGSRERRGVISTANYPARKFGVRSAMPTGMALKLCPHLTLLPGRFDAYKEASNHIREIFSRYTSRIEPLSLDEAYLDVTDSVHCHGSATLIAQEIRQTIFNELQLTASAGVAPVKFLAKIASDMNKPNGQFVITPAEVPAFLQTLPLAKIPGVGKVSAAKLEAMGLRTCGDVQKCDLVMLLKRFGKFGRILWERSQGIDERDVNSERLRKSVGVERTMAEDIHHWSECEAIIERLYPELERRLAKVKPDLLIARQGVKLKFDDFQQTTQEHVWPRLNKADLIATARKTWDERRGGRGVRLVGLHVTLLDPQMERQLVLGL
[1]
  total protein half-life in vivo: 4.16 ± 0.15 h

## MKRAVITGLGIVSSIGNNQQEVLASLREGRSGITFSQELKDSGMRSHVWGNVKLDTTGLIDRKVVRFMSDASIYAFLSMEQAIADAGLSPEAYQNNPRVGLIAGSGGGSPRFQVFGADAMRGPRGLKAVGPYVVTKAMASGVSACLATPFKIHGVNYSISSACATSAHCIGNAVEQIQLGKQDIVFAGGGEELCWEMACEFDAMGALSTKYNDTPEKASRTYDAHRDGFVIAGGGGMVVVEELEHALARGAHIYAEIVGYGATSDGADMVAPSGEGAVRCMKMAMHGVDTPIDYLNSHGTSTPVGDVKELAAIREVFGDKSPAISATKAMTGHSLGAAGVQEAIYSLLMLEHGFIAPSINIEELDEQAAGLNIVTETTDRELTTVMSNSFGFGGTNATLVMRKLKD [P0A953]
[1]
  total protein half-life in vivo: 5.27 ± 0.45 h
[2]
  total protein half-life in vivo: 5.06 ± 0.069 h
[3]
  total protein half-life in vivo: 4.81 ± 0.16 h
[4]
  total protein half-life in vivo: 4.98 ± 0.26 h
[5]
  total protein half-life in vivo: 4.81 ± 0.049 h
[6]
  total protein half-life in vivo: 2.99 ± 0.039 h
[12]
  total protein half-life in vivo: 6.06 ± 0.36 h
[7]
  total protein half-life in vivo: 10.8 ± 0.81 h
[8]
  total protein half-life in vivo: 4.78 ± 0.11 h
[9]
  total protein half-life in vivo: 8.39 ± 0.45 h
[10]
  total protein half-life in vivo: 5.89 ± 0.25 h
[11]
  total protein half-life in vivo: 12.3 ± 0.21 h
